# How the values were obtained:
# [1] = target: CD20 on human cells (Daudi cells, B cells in PBMCs) (human) (UniProt P11836); experiment: cell-based or functional assay
# [2] = target: Soluble single-chain human neonatal Fc receptor (scFcRn) (human) (UniProt P55899); experiment: SPR (Biacore X), scFcRn immobilized on CM5 chip, pH 6.0, two-state model; mean of 3 runs
# [3] = target: Soluble single-chain human neonatal Fc receptor (scFcRn) (human) (UniProt P55899); experiment: SPR (Biacore X), scFcRn immobilized on CM5 chip, pH 6.0, two-state model; Run 1
# [4] = target: Soluble single-chain human neonatal Fc receptor (scFcRn) (human) (UniProt P55899); experiment: SPR (Biacore X), scFcRn immobilized on CM5 chip, pH 6.0, two-state model; Run 3
# [5] = target: Soluble single-chain human neonatal Fc receptor (scFcRn) (human) (UniProt P55899); experiment: SPR (Biacore X), scFcRn immobilized on CM5 chip, pH 6.0, two-state model; Run 2
# [6] = target: CD22 on human cells (B cells in PBMCs, Daudi, D1-1) (human) (UniProt P20273); experiment: cell-based or functional assay
# Sequence of Soluble single-chain human neonatal Fc receptor (scFcRn) (human) (P55899 24-297 limits assumed, chain 1 of 2): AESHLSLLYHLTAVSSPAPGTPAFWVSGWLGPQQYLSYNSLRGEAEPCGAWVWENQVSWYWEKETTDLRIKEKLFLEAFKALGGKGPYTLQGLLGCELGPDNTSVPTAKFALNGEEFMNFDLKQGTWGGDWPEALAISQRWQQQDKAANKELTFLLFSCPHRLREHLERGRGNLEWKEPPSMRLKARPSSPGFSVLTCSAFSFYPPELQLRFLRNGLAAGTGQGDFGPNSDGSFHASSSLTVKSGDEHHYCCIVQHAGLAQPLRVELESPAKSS
# Sequence of Soluble single-chain human neonatal Fc receptor (scFcRn) (human) (P61769 21-119 limits assumed, chain 2 of 2, further chain): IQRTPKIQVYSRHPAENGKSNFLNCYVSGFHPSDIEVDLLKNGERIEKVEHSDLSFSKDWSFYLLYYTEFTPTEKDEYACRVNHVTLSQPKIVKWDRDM
# Sequence of CD20 on human cells (Daudi cells, B cells in PBMCs) (human) (P11836 whole entry): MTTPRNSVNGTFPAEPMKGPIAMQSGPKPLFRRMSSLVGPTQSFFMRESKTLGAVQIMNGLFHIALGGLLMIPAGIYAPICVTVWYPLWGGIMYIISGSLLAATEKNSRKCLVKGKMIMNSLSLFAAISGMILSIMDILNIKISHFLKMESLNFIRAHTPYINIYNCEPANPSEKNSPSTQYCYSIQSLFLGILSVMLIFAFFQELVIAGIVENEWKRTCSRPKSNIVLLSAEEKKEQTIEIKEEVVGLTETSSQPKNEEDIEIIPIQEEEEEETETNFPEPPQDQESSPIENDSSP
molecule,measurement,setting,value
20*-2b (Ck-IgG-IFNα: veltuzumab with four IFNα2b fused at the light chains) (from UniProt P01563 24-188),"in vitro cytotoxicity in Daudi cells (MTS assay), EC50",[1],0.0002 nM
20-2b (Fc-IgG-IFNα: veltuzumab with four IFNα2b fused at the heavy chains) (from UniProt P01563 24-188),"in vitro cytotoxicity in Daudi cells (MTS assay), EC50",[1],0.0002 nM
Epratuzumab (humanized anti-CD22 IgG1) (antibody),Kd,[2],16.3 nM
same,Kd,[3],15 nM
same,Kd,[4],15.8 nM
same,Kd,[5],17.9 nM
"F(ab')2 fragment of epratuzumab (protein, INN chains, looked up, F(ab')2) VH: QVQLVQSGAEVKKPGSSVKVSCKASGYTFTSYWLHWVRQAPGQGLEWIGYINPRNDYTEYNQNFKDKATITADESTNTAYMELSSLRSEDTAFYFCARRDITTFYWGQGTTVTVSS VL: DIQLTQSPSSLSASVGDRVTMSCKSSQSVLYSANHKNYLAWYQQKPGKAPKLLIYWASTRESGVPSRFSGSGSGTDFTFTISSLQPEDIATYYCHQYLSSWTFGGGTKLEIK","surface CD22 on B cells of PBMCs after treatment, % of isotype control MFI (flow cytometry)",[6],45 % control
